# From patent US20260258128A1 (MUSTBIO, published 2026)
# Changes are numbered by the printed parent chain.
# B1: Protein complex of CD3-binding antibody variable region 1-Fc x PD-L1 antibody (bispecific antibody)
# chain 1: EVQLVESGGGLVQPGGSLRLSCAASGFSFTGYTMNWVRQAPGKGLEWVALINPYKGVTTYADSVKGRFTISRDNSKNTAYLQMNSLRAEDTAVYYCARSGYYGDSDWYFDVWGQGTLVTVSSDIQMTQSPSSLSASVGDRVTITCRASQDIRNYLNWYQQKPGKAPKLLIYYTSRLESGVPSRFSGSGSGTDYTLTISSLQPEDFATYYCQQGNTLPWTFGQGTKVEIKRT
# chain 2: EVQLLESGGGLVQPGGSLRLSCAASGFTFSSYIMMWVRQAPGKGLEWVSSIYPSGGITFYADTVKGRFTISRDNSKNTLYLQMNSLRAEDTAVYYCARIKLGTVTTVDYWGQGTLVTVSSASTKGPSVFPLAPSSKSTSGGTAALGCLVKDYFPEPVTVSWNSGALTSGVHTFPAVLQSSGLYSLSSVVTVPSSSLGTQTYICNVNHKPSNTKVDKKV
# chain 3: QSALTQPASVSGSPGQSITISCTGTSSDVGGYNYVSWYQQHPGKAPKLMIYDVSNRPSGVSNRFSGSKSGNTASLTISGLQAEDEADYYCSSYTSSSTRVFGTGTKVTVLGQPKANPTVTLFPPSSEELQANKATLVCLISDFYPGAVTVAWKADGSPVKAGVETTKPSKQSNNKYAASSYLSLTPEQWKSHRSYSCQVTHEGSTVEKTVAPTECS
# B2: Protein complex of CD3-binding antibody variable region 4-Fc x PD-L1 antibody (bispecific antibody)
# chain 1: B1 chain 1 with R72A, A79L, R175S
# chain 2: B1 chain 2
# chain 3: B1 chain 3
# B3: Protein complex of CD3-binding antibody variable region 6-Fc x PD-L1 antibody (bispecific antibody)
# chain 1: B1 chain 1 with R72D, A79L, R175S
# chain 2: B1 chain 2
# chain 3: B1 chain 3
# B4: Protein complex of CD3-binding antibody variable region 5-Fc x PD-L1 antibody (bispecific antibody)
# chain 1: B1 chain 1 with G44C, R72A, A79L, R175S, Q222C
# chain 2: B1 chain 2
# chain 3: B1 chain 3
# B5: Protein complex of CD3-binding antibody variable region 2-Fc x PD-L1 antibody (bispecific antibody)
# scFv-Fc: EVQLVESGGGLVQPGGSLRLSCAASGFSFTGYTMNWVRQAPGKGLEWVALINPYKGVTTYADSVKGRFTISRDNSKNTLYLQMNSLRAEDTAVYYCARSGYYGDSDWYFDVWGQGTLVTVSSGGGGSGGGGSGGGGSDIQMTQSPSSLSASVGDRVTITCRASQDIRNYLNWYQQKPGKAPKLLIYYTSSLESGVPSRFSGSGSGTDYTLTISSLQPEDFATYYCQQGNTLPWTFGQGTKVEIKRTEPKSSDKTHTCPPCPAPEAAGGPSVFLFPPKPKDTLMISRTPEVTCVVVDVSHEDPEVKFNWYVDGVEVHNAKTKPREEQYNSTYRVVSVLTVLHQDWLNGKEYKCKVSNKALPAPIEKTISKAKGQPREPQVYTGPPSRDELTKNQVSLSCAVKGFYPSDIAVEWESNGQPENNYKTTPPVLDSDGSFFLVSKLTVDKSRWQQGNVFSCSVMHEALHNHYTQKSLSLSPGK
# heavy: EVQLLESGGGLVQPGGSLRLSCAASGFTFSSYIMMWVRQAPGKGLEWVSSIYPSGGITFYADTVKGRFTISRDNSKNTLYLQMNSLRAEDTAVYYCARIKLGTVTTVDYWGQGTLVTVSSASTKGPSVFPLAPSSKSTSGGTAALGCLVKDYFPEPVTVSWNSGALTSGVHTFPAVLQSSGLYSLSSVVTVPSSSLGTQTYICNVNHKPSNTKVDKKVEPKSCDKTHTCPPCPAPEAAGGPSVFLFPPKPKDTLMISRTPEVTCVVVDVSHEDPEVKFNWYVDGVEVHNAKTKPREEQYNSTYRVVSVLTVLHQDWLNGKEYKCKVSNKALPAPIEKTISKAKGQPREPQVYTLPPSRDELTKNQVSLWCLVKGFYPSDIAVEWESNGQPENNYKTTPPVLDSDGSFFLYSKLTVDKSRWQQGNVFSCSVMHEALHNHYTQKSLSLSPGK
# light: B1 chain 3
# B6: Protein complex of CD3-binding antibody variable region 3-Fc x PD-L1 antibody (bispecific antibody)
# scFv-Fc: B5 scFv-Fc with G44C, Q237C
# heavy: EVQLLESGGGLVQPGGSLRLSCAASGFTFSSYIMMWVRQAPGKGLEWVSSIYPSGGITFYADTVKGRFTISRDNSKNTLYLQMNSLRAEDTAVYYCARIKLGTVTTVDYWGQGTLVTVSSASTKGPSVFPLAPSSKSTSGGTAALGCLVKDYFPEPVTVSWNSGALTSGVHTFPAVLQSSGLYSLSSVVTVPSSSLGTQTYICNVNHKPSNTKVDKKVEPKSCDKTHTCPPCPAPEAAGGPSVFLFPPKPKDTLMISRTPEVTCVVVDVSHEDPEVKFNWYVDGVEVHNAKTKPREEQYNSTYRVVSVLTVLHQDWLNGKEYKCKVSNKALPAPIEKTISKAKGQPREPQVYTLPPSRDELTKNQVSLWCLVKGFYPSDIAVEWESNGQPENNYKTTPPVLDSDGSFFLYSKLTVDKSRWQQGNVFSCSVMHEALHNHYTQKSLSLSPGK
# light: B1 chain 3
# B7: Protein complex of CD3-binding antibody variable region 7-Fc x PD-L1 antibody (bispecific antibody)
# chain 1: B1 chain 1 with R72Q, A79L, R175S
# chain 2: B1 chain 2
# chain 3: B1 chain 3
# Molecular target: T1, CD3 on T cells of human peripheral blood mononuclear cells (human, UniProt P07766 23-207)
# T1 sequence (P07766 23-207): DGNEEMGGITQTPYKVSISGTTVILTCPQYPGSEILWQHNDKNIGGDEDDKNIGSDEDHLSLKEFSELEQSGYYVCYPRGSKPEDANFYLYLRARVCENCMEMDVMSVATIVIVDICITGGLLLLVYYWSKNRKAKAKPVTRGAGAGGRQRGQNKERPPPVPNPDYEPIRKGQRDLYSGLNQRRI
# Test: cell-based or functional assay
Binder,"Death of cancer cells EC50 (MDA-MB-231 + human PBMC, flow cytometry) [nM]",Death of cancer cells Emax (%),IFNγ release EC50 [nM],IFNγ release Maximum concentration [ng/mL]
B1,0.23,80,0.1,6.1
B2,0.18,79,31.2,2.6
B3,3.5,68,16.4,5.1
B4,0.18,66,10,4.4
B5,0.05,–,2.5,–
B6,0.06,–,0.1,–
B7,2.26,68,15.3,9.3

# Molecular target: PD-L1 on human cells (MDA-MB-231, MCF-7, 293T) (human, UniProt Q9NZQ7 19-290)
# Sequence (Q9NZQ7 19-290): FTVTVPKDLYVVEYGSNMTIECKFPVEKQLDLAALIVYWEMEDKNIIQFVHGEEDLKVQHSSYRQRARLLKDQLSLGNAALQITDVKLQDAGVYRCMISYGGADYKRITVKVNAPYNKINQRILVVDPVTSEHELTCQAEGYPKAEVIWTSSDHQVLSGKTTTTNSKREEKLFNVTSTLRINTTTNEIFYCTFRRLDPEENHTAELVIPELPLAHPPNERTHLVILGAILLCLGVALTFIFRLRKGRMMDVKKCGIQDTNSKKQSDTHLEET
# Test: cell-based or functional assay
Binder,"Tumor lysis EC50, 293T (normal cells, low PD-L1 expression) + human PBMC [nM]","Tumor lysis EC50, MCF7 (low PD-L1 expression) + human PBMC [nM]","Tumor lysis EC50, MDA-MB-231 (high PD-L1 expression) + human PBMC [nM]"
B5,0.0313,0.15,0.0945

# Molecular target: T1, CD3 on T cells of human peripheral …
# Test: cell-based or functional assay
# Remark: another data set of the same source
row,Binder,fold reduction of the maximum cytokine release level compared to the CD3-binding monoclonal antibody [fold]
1,B6,10.5
